# In patent US20230212244A1 (IMMATICS BIOTECHNOLOGIES, published 2023):
# Square brackets hold non-standard residues; d marks the D form. Ends that are not written are not given here. pS = N[C@@H](COP(=O)(O)O)C(=O)O
# B1: peptide GLASKENFSNVSL (SEQ ID NO: 26) (peptide)
# peptide: GLASKENFSNVSL
# B2: peptide GLLESPSIFNFTA (SEQ ID NO: 36) (peptide)
# peptide: GLLESPSIFNFTA
# B3: peptide GLDDRYSLV (SEQ ID NO: 46) (peptide)
# peptide: GLDDRYSLV
# B4: peptide KLLDLTVRI (SEQ ID NO: 35) (peptide)
# peptide: KLLDLTVRI
# B5: peptide YLAHFIEGL (SEQ ID NO: 169) (peptide)
# peptide: YLAHFIEGL
# B6: peptide TLQEVVTGV (SEQ ID NO: 183) (peptide)
# peptide: TLQEVVTGV
# notes: also called TLQEWTGV
# B7: peptide SLNKWIFTV (SEQ ID NO: 182) (peptide)
# peptide: SLNKWIFTV
# B8: peptide FLDASDPAL (SEQ ID NO: 48) (peptide)
# peptide: FLDASDPAL
# B9: peptide TLDAAQPRV (SEQ ID NO: 43) (peptide)
# peptide: TLDAAQPRV
# B10: peptide GLSSAYGGL (SEQ ID NO: 30) (peptide)
# peptide: GLSSAYGGL
# B11: peptide RLAELTVDEFL (SEQ ID NO: 4) (peptide)
# peptide: RLAELTVDEFL
# B12: peptide RTLDKVLEV (SEQ ID NO: 176) (peptide)
# peptide: RTLDKVLEV
# B13: peptide GLLEARGILGL (SEQ ID NO: 166) (peptide)
# peptide: GLLEARGILGL
# B14: peptide QMLDVAIRV (SEQ ID NO: 29) (peptide)
# peptide: QMLDVAIRV
# B15: peptide KLYERCEW (SEQ ID NO: 47) (peptide)
# peptide: KLYERCEVV
# notes: also called KLYERCEVV
# B16: peptide YLKDGDVML (SEQ ID NO: 20) (peptide)
# peptide: YLKDGDVML
# B17: peptide RLQETEGMVAV (SEQ ID NO: 171) (peptide)
# peptide: RLQETEGMVAV
# B18: peptide ILLDDNMQIRL (SEQ ID NO: 174) (peptide)
# peptide: ILLDDNMQIRL
# B19: peptide ILDDSFKLL (SEQ ID NO: 41) (peptide)
# peptide: ILDDSFKLL
# B20: peptide RLIPDTLYSV (SEQ ID NO: 3) (peptide)
# peptide: RLIPDTLYSV
# B21: peptide RLLJPLSSA (SEQ ID NO: 179) (peptide)
# peptide: RLL[pS]PLSSA
# notes: Phosphopeptide
# B22: peptide FLSSLKGGLL (SEQ ID NO: 18) (peptide)
# peptide: FLSSLKGGLL
# B23: peptide ALAAARVEL (SEQ ID NO: 17) (peptide)
# peptide: ALAAARVEL
# B24: peptide SLAPTPVSA (SEQ ID NO: 38) (peptide)
# peptide: SLAPTPVSA
# B25: peptide AMAEMVLQV (SEQ ID NO: 190) (peptide)
# peptide: AMAEMVLQV
# B26: peptide ALSNVIHKV (SEQ ID NO: 40) (peptide)
# peptide: ALSNVIHKV
# B27: peptide KLNTETFGV (SEQ ID NO: 32) (peptide)
# peptide: KLNTETFGV
# B28: peptide TLMAEMHW (SEQ ID NO: 50) (peptide)
# peptide: TLMAEMHVV
# B29: peptide SLADRLIGV (SEQ ID NO: 25) (peptide)
# peptide: SLADRLIGV
# B30: peptide LLADEDSSYL (SEQ ID NO: 27) (peptide)
# peptide: LLADEDSSYL
# B31: peptide YLFREPATI (SEQ ID NO: 178) (peptide)
# peptide: YLFREPATI
# B32: peptide SILDDSFKL (SEQ ID NO: 42) (peptide)
# peptide: SILDDSFKL
# B33: peptide LLLDTVTMQV (SEQ ID NO: 172) (peptide)
# peptide: LLLDTVTMQV
# B34: peptide ALWEKNTHL (SEQ ID NO: 33) (peptide)
# peptide: ALWEKNTHL
# B35: peptide FLDANGHFV (SEQ ID NO: 23) (peptide)
# peptide: FLDANGHFV
# B36: peptide LLYGKYVSV (SEQ ID NO: 31) (peptide)
# peptide: LLYGKYVSV
# B37: peptide SLESKLTSV (SEQ ID NO: 44) (peptide)
# peptide: SLESKLTSV
# B38: peptide SLLDENNVSSYL (SEQ ID NO: 184) (peptide)
# peptide: SLLDENNVSSYL
# B39: peptide ALDSSNSMQTI (SEQ ID NO: 52) (peptide)
# peptide: ALDSSNSMQTI
# B40: peptide AISEVIGKITA (SEQ ID NO: 189) (peptide)
# peptide: AISEVIGKITA
# B41: peptide FLLGSEIKL (SEQ ID NO: 53) (peptide)
# peptide: FLLGSEIKL
# B42: peptide RLYTKLLNEA (SEQ ID NO: 19) (peptide)
# peptide: RLYTKLLNEA
# B43: peptide SVIDHIHLISV (SEQ ID NO: 167) (peptide)
# peptide: SVIDHIHLISV
# B44: peptide ALLQGAIESV (SEQ ID NO: 177) (peptide)
# peptide: ALLQGAIESV
# B45: peptide KMSEKILLL (SEQ ID NO: 186) (peptide)
# peptide: KMSEKILLL
# B46: peptide VLDGVLMEL (SEQ ID NO: 24) (peptide)
# peptide: VLDGVLMEL
# B47: peptide FLVDGPRVQL (SEQ ID NO: 188) (peptide)
# peptide: FLVDGPRVQL
# B48: peptide TLLGGKEAQALGV (SEQ ID NO: 175) (peptide)
# peptide: TLLGGKEAQALGV
# B49: peptide NLFDLGGQYLRV (SEQ ID NO: 181) (peptide)
# peptide: NLFDLGGQYLRV
# B50: peptide VLIDHRWVL (SEQ ID NO: 21) (peptide)
# peptide: VLIDHRWVL
# B51: peptide VLVDQSWVL (SEQ ID NO: 16) (peptide)
# peptide: VLVDQSWVL
# B52: peptide ALTEIQEFI (SEQ ID NO: 28) (peptide)
# peptide: ALTEIQEFI
# B53: peptide ALLNGEYLLAA (SEQ ID NO: 54) (peptide)
# peptide: ALLNGEYLLAA
# B54: peptide ILLEKSVSV (SEQ ID NO: 34) (peptide)
# peptide: ILLEKSVSV
# B55: peptide KLGDLMVLL (SEQ ID NO: 173) (peptide)
# peptide: KLGDLMVLL
# B56: peptide GLIRFPLMTI (SEQ ID NO: 168) (peptide)
# peptide: GLIRFPLMTI
# B57: peptide ALLPRYFFL (SEQ ID NO: 2) (peptide)
# peptide: ALLPRYFFL
# B58: peptide QLFSEIHNL (SEQ ID NO: 191) (peptide)
# peptide: QLFSEIHNL
# B59: peptide GLFAGLGGAGA (SEQ ID NO: 37) (peptide)
# peptide: GLFAGLGGAGA
# B60: peptide WLFDDGGLTL (SEQ ID NO: 5) (peptide)
# peptide: WLFDDGGLTL
# B61: peptide ALAGGITMV (SEQ ID NO: 170) (peptide)
# peptide: ALAGGITMV
# B62: peptide GLHNVVYGI (SEQ ID NO: 187) (peptide)
# peptide: GLHNVVYGI
# notes: also called GLHNWYGI
# B63: peptide QVWEIQHTV (SEQ ID NO: 51) (peptide)
# peptide: QVWEIQHTV
# B64: peptide GLIDEVMVL (SEQ ID NO: 22) (peptide)
# peptide: GLIDEVMVL
# notes: also called CYP2W1-001
# B65: peptide ALAELLHGA (SEQ ID NO: 45) (peptide)
# peptide: ALAELLHGA
# B66: peptide RLLDFPEAMVL (SEQ ID NO: 165) (peptide)
# peptide: RLLDFPEAMVL
# B67: peptide VLYTGWRV (SEQ ID NO: 185) (peptide)
# peptide: VLYTGVVRV
# Target: T1, HLA-A*02:01 (human)
# T1 construct: MHC class I monomer made peptide-receptive by UV cleavage of a UV-sensitive ligand; also called peptide-receptive MHC molecules
# Test: UV-ligand exchange ELISA (anti-β2m), peptide exchange yield grade
# Text: Candidate peptides for T cell based therapies according to the present invention were further tested for their MHC binding capacity (affinity). The individual peptide-MHC complexes were produced by UV-ligand exchange, where a UV-sensitive peptide is cleaved upon UV-irradiation, and exchanged with the peptide of interest as analyzed. Only peptide candidates that can effectively bind and stabilize the peptide-receptive MHC molecules prevent dissociation of the MHC complexes. To determine the yield of the exchange reaction, an ELISA was performed based on the detection of the light chain (β2m) of stabilized MHC complexes. The assay was performed as generally described in Rodenko et al. (Rodenko et al., 2006).
# 96 well MAXISorp plates (NUNC) were coated over night with 2ug/ml streptavidin in PBS at room temperature, washed 4× and blocked for1h at 37° C. in 2% BSA containing blocking buffer. Refolded HLA-A*02:01/MLA-001 monomers served as standards, covering the range of 15-500 ng/ml. Peptide-MHC monomers of the UV-exchange reaction were diluted 100 fold in blocking buffer. Samples were incubated for 1h at 37° C., washed four times, incubated with 2 ug/ml HRP conjugated anti-β2m for 1h at 37° C., washed again and detected with TMB solution that is stopped with […]. Absorption was measured at 450 nm. Candidate peptides that show a high exchange yield (preferably higher than 50%, most preferred higher than 75 %) are generally preferred for a generation and production of antibodies or fragments thereof, and/or T cell receptors or fragments thereof, as they show sufficient avidity to the MHC molecules and prevent dissociation of the MHC complexes.
row,Binder,peptide exchange yield [%]
1,B1,20 to 50
2,B2,50 to 75
3,B3,50 to 75
4,B4,50 to 75
5,B5,50 to 75
6,B6,50 to 75
7,B7,≥ 75
8,B8,20 to 50
9,B9,20 to 50
10,B10,10 to 20
11,B11,50 to 75
12,B12,20 to 50
13,B13,50 to 75
14,B14,50 to 75
15,B15,20 to 50
16,B16,50 to 75
17,B17,20 to 50
18,B18,≥ 75
19,B19,20 to 50
20,B20,≥ 75
21,B21,50 to 75
22,B22,50 to 75
23,B23,50 to 75

row,Binder,peptide exchange yield [%]
1,B24,20 to 50
2,B25,50 to 75
3,B26,20 to 50
4,B27,20 to 50
5,B28,50 to 75
6,B29,≥ 75
7,B30,20 to 50
8,B31,20 to 50
9,B32,≥ 75
10,B33,50 to 75
11,B34,50 to 75
12,B35,50 to 75
13,B36,50 to 75
14,B37,50 to 75
15,B38,50 to 75
16,B39,20 to 50
17,B40,50 to 75
18,B41,50 to 75
19,B42,50 to 75
20,B43,50 to 75
21,B44,50 to 75
22,B45,50 to 75
23,B46,50 to 75

row,Binder,peptide exchange yield [%]
1,B47,50 to 75
2,B48,50 to 75
3,B49,50 to 75
4,B50,50 to 75
5,B51,50 to 75
6,B52,≥ 75
7,B53,50 to 75
8,B54,50 to 75
9,B55,50 to 75
10,B56,50 to 75
11,B57,20 to 50
12,B58,≥ 75
13,B59,50 to 75
14,B60,≥ 75
15,B61,50 to 75
16,B62,50 to 75
17,B63,20 to 50
18,B64,50 to 75
19,B65,50 to 75
20,B66,≥ 75
21,B67,50 to 75
